The results in this text go back to patent US20180194847A1 (SEOUL NATIONAL UNIVERSITY R AND DB FOUNDATION, published 2018).

The target of the experiment is T1, recombinant human CD154 protein (human, UniProt P29965 47-261, limits assumed).
T1 construct: This protein was immobilised on the SPR chip; also called human CD154 antigen
T1 sequence: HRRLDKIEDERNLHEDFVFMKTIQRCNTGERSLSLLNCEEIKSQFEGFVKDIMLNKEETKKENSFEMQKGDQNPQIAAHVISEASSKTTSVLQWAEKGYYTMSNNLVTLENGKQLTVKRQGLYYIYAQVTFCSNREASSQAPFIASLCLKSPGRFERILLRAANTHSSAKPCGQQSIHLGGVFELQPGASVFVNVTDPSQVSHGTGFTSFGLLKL
The experiment can be described thus: SPR (Reichert SR7500DC), CD154 immobilised on chip, antibody in flow. The procedure:
The binding affinity KD of each of the RD-05 mouse antibody and IgG4 and IgG4 (L115E) RD-05 chimeric antibodies, produced as described above, for human CD154 antigen, was measured using an SPR method by Woojung BSC, Inc. (Suwon, Gyeonggi-do, Korea). Specifically, 17.5 μg/ml of recombinant human CD154 protein in immobilization buffer (10 mM sodium acetate, pH 6.0) was attached to a CMDH gold chip (Cat#13206066, Reichert Technologies, Depew, N.Y., USA) at a density of 2300 RU (resonance unit; 1 RU=1 pg/mm² surface area), after which 3.125 μg/ml of bovine serum albumin was attached at a density of 650 RU. The RD-05 antibody was diluted in PBS at […], 1.25, 2.5, 5, 10, 20, 40, 80, 160, 320, 2560 and 5120 nM. […] Based on the determined values, the KD values were calculated.

B1: RD-05 mouse antibody (antibody, V domains shown)
VH: DVQLQESGPGLVKPSQSLSLTCTVTGYSITSDYAWNWIRQFPGNKLEWMGYITYSGTTSYNPSLKSRISLTRDTSKNQFFLQLNAVTTEDTATYYCARSPYYGPWYFDVWGAGTTVTVSS
VL: DIVLTQSPASLTVSLGQRATISCKASQSVDYDGDSYLHWYQQKPGQPPKLLIYAASYLESGIPARFSGSGSGTDFTLNIHPVEEEDAATYYCQQSNEDPNTFGGGTKLEIKR
notes: Mouse monoclonal antibody from the hybridoma, kappa light chain; also called mouse RD-05 antibody; anti-human CD154 antibody
Turning to B1, the Kd turned out to be 37 nM.
